Target: biotinylated 151AcPhe mutant GFP [GFP: P42212]
Assay: SAv-dependent gel-shift assay, 10% native PAGE

- percent of GFP band retarded: 80%
Substance: streptavidin (from UniProt P22629 37-163)

From US20030228593A1
